Test results: patent US20050095616A1

Tests used:
proteasome = test: cell-based or functional assay
[1] = test system: IκB(S32A, S36A)-Bla mutant fusion protein
[2] = biological target: IκBα-beta-lactamase (IκBα-Bla) fusion protein, wild type (N-terminal IκBα and C-terminal Bla); test: cell-based or functional assay

## ALLN (peptide)
proteasome
  IC50 for inhibition of the TNFα-stimulated decrease in reporter levels: 5 µM

## IκB kinase (IKK)
[1]
  decrease in β-lactamase activity in response to TNFα treatment (10 ng/ml, 30 minutes): the mutation of serines-32 and -36 abolished the decrease in β-lactamase activity in response to TNFα treatment

## IκB kinase (IKK) (enzyme)
[2]
  decrease in β-lactamase activity of Jurkat IκB-Bla cells after 10 ng/ml TNFα: 2 fold
